According to US20200040045, “CARBOHYDRATE PRODUCING PLANT MATERIAL” (GREEN RICE SWEDEN AB, published 2020):

Columns and labels:
SUSIBA1 [1] = molecular target: SUSIBA1 (Hordeum vulgare); assay: EMSA; A-stretch substitution; details: tags: overexpressed in and purified from E. coli; label: 32P
Procedure: (§1) Bars in (A-D)=5 μm and in (K-M)=100 μm. One-way ANOVA was used (Error bars show s.d. and **p≤0.01 between heat-killed background and living agrobacteria).
(§2) Having identified SUSIBA1 p, the potential involvement of SUSIBA1 in fructan synthesis was investigated. […] Electrophoretic mobility shift assay (EMSA) was used to study the in vitro interaction between SUSIBA1 and the promoter of 6-SFT that encodes a key enzyme in synthesis of fructan in barley. EMSA was performed as described previously using overexpressed and purified SUSIBA1 from E. coli (FIG. 8E to 8J). In accordance with the hallmark of WRKY proteins, it was shown that the […] TF bound to the W-box DNA cis-element. […] Examination of the 6-SFT promoter led to identification of two SUREa, three W-box and one SP8a element (FIG. 8E). Using different combinations of the restriction enzymes BstXI, PvulI and SpeI, the full-length promoter (fragment 1) was resolved into four fragments (fragments 2-5, FIG. 8E). […] To confirm the specificity of the binding activity, the element sequences (FIG. 8I) were engineered and the binding of SUSIBA1 was tested. […] No binding activity of SUSIBA1 to the engineered element sequences, i.e., SP8a M, W-box M and SUREa M4 also indicated the reliability of EMSA in the assay system (FIG. 8J). […]

SUSIBA1 [2] = molecular target: SUSIBA1 (Hordeum vulgare); assay: EMSA; details: tags: overexpressed in and purified from E. coli; label: 32P; second strand printed as 3'-5' complement, annealed duplex
Procedure: as §1, §2

SUSIBA1 [3] = molecular target: SUSIBA1 (Hordeum vulgare); assay: EMSA; 0.0125-0.2 ug SUSIBA1 prevents binding of 0.2 ug SUSIBA2 to the W-box; details: tags: overexpressed in and purified from E. coli; label: 32P
Procedure: (§3) The infiltrated leaves were incubated at 40 mM Suc. Two days after infiltration and incubation, qPCR analysis was performed. (C) Transcript levels of SUSIBA2 after co-infiltration of agrobacteria containing p35S:SUSIBA2 with the double-stranded decoy oligoes upon antisense inhibition of SUSIBA1. (D) Transcript levels of SUSIBA2 after infiltration of agrobacteria containing p35S:SUSIBA2 alone or the double-stranded decoy oligoes alone at 100 mM Suc. The infiltrated leaves were incubated at 100 mM Suc for two days before analysis. Significant differences are analyzed statistically between p35S:SUSIBA1 and decoy oligoes, and indicated by asterisks (**p≤0.01) in (B), and between p35:SUSIBA2 and decoy oligoes in (C), and between p35:SUSIBA2 and decoy oligoes in (D). One-way ANOVA was used (Error bars show s.d.) Three independent experiments were performed (n=3). (E) EMSA analysis of competitive activity to the W-box in the SUSIBA2 promoter between SUSIBA2 and SUSIBA1. EMSA of binding activity to the W-box of SUSIBA2 (left panel) and SUSIBA1 (middle panel) and SUSIBA2 and SUSIBA1 in competing (right panel). SUSIBA2 and SUSIBA1 were overexpressed and purified from E. coli and challenged with two oligoes. […]

SUSIBA2 = SUSIBA2 (Hordeum vulgare, UniProt Q6VWJ6 SEQ:1-573); assay: EMSA; 0.2 ug SUSIBA2; displaced by SUSIBA1; details: tags: overexpressed and purified; label: 32P
Procedure: as §3

SUSIBA1 (Hordeum vulgare), sequence (Q6VWJ6 293-573): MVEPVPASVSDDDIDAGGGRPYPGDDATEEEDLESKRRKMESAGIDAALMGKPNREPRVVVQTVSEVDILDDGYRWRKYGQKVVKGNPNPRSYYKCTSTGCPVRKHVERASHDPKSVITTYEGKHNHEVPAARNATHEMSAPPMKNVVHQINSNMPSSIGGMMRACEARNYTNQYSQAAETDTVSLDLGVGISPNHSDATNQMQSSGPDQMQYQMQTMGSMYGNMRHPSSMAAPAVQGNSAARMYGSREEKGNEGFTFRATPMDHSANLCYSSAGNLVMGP
SUSIBA2, sequence (Q6VWJ6 whole entry): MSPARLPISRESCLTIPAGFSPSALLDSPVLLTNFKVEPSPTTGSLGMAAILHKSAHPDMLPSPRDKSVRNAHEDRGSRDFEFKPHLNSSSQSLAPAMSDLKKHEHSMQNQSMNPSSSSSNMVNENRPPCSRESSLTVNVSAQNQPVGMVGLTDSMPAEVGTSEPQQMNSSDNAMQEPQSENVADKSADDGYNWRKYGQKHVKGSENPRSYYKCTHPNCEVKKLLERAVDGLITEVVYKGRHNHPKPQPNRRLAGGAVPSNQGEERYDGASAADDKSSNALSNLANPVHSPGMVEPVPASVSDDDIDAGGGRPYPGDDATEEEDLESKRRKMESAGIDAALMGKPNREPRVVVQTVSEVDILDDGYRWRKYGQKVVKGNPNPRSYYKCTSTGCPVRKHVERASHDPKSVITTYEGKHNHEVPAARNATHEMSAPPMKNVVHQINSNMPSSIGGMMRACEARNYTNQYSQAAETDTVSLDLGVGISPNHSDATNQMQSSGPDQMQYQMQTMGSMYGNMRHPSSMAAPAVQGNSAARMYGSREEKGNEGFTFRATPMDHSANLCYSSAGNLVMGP

B1: SUREa M4 (dsDNA)
DNA 1: CAAAAAAAAAAAAAAAAAAC
DNA 2: GTTTTTTTTTTTTTTTTTTG
B1: no binding (SUSIBA1 [1]).

B2: 6-SFT SUREa (dsDNA)
DNA 1: CACACATGGCACGCCAAAAC
DNA 2: GTTTTGGCGTGCCATGTGTG
B2: binds (SUSIBA1 [2]).

B3: 6-SFT SP8a (dsDNA)
DNA 1: CTGTACTGTGTTTTTAGCCT
DNA 2: AGGCTAAAAACACAGTACAG
B3: binds (SUSIBA1 [2]).

B4: SUSIBA2 promoter W-box oligo (dsDNA)
DNA 1: TAGGTCGTCAATTTGACTTATATAAAATAT
DNA 2: ATATTTTATATAAGTCAAATTGACGACCTA
B4: binds (SUSIBA1 [3]); binds (SUSIBA2).
